Changes are numbered by the printed parent chain.
B1: CACACA_site399 (dsDNA)
DNA 1: AACAACCAAAGGCACACACACAAAAAAAAAAATATA
DNA 2: TATATTTTTTTTTTTGTGTGTGTGCCTTTGGTTGTT
B2: CACACA_site4117 (dsDNA)
DNA 1: TATATATATATAGACACACACACACCCATATATATA
DNA 2: TATATATATGGGTGTGTGTGTGTCTATATATATATA
B3: CACACA_site5776 (dsDNA)
DNA 1: ATTATAAATACACGCACACACACTTATATATATATA
DNA 2: TATATATATATAAGTGTGTGTGCGTGTATTTATAAT
B4: CACACA_site8723 (dsDNA)
DNA 1: TATTCCCCCCAACACACACACACACCGACATACCAC
DNA 2: GTGGTATGTCGGTGTGTGTGTGTGTTGGGGGGAATA
B5: CACACA_site9118 (dsDNA)
DNA 1: AAAAAAAACGCACATACACACACACCCATATATATA
DNA 2: TATATATATGGGTGTGTGTGTATGTGCGTTTTTTTT
B6: CACACA_site710 (dsDNA)
DNA 1: AAAAAAAGATTATACACACACATATATAAACCTACA
DNA 2: TGTAGGTTTATATATGTGTGTGTATAATCTTTTTTT
B7: CACACA_site7579 (dsDNA)
DNA 1: TATACACATATATACACACACATATATAAATAAATA
DNA 2: TATTTATTTATATATGTGTGTGTATATATGTGTATA
B8: CACACA_site8978 (dsDNA)
DNA 1: TGAGTCTTTTACATTGCACACACATTTCTTTCCTTT
DNA 2: AAAGGAAAGAAATGTGTGTGCAATGTAAAAGACTCA
B9: CACACA_site5111 (dsDNA)
DNA 1: TATTTATAAATTTACACACACACATGGGAACATAAA
DNA 2: TTTATGTTCCCATGTGTGTGTGTAAATTTATAAATA
B10: CACACA_site1251 (dsDNA)
DNA 1: TACAATTTAAAACACACACACAATAATACATATATA
DNA 2: TATATATGTATTATTGTGTGTGTGTTTTAAATTGTA
B11: CACACA_site1104 (dsDNA)
DNA 1: AAAAAAAAAAAAAACACACACACAAAAAAAAATATA
DNA 2: TATATTTTTTTTTGTGTGTGTGTTTTTTTTTTTTTT
B12: CACACA_site6342 (dsDNA)
DNA 1: AAAAAAAACAGACACACACACAAATATTTATATATC
DNA 2: GATATATAAATATTTGTGTGTGTGTCTGTTTTTTTT
B13: CACACA_site7431 (dsDNA)
DNA 1: CTTGTCATTTTGCACACACACATGTATAGGTTATTA
DNA 2: TAATAACCTATACATGTGTGTGTGCAAAATGACAAG
B14: CACACA_site4903 (dsDNA)
DNA 1: AAAAACCATTGGCACACACACATAATATATAATATA
DNA 2: TATATTATATATTATGTGTGTGTGCCAATGGTTTTT
B15: CACACA_site5102 (dsDNA)
DNA 1: GAGAAAAATAAATACACACACATAAATAAATACATA
DNA 2: TATGTATTTATTTATGTGTGTGTATTTATTTTTCTC
B16: CACACA_site7142 (dsDNA)
DNA 1: TAGTAAAAGATATACACACACCAAAAAATATAATTA
DNA 2: TAATTATATTTTTTGGTGTGTGTATATCTTTTACTA
B17: CACACA_site5427 (dsDNA)
DNA 1: TAATTATGCGGACACACACACACACCCAACTAAAAA
DNA 2: TTTTTAGTTGGGTGTGTGTGTGTGTCCGCATAATTA
B18: CACACA_site2569 (dsDNA)
DNA 1: B17 DNA 1 with G10A
DNA 2: B17 DNA 2 with C27T
B19: CACACA_site8411 (dsDNA)
DNA 1: AAAAAAAAAAAACACACACACACACCGACAAAATAT
DNA 2: ATATTTTGTCGGTGTGTGTGTGTGTTTTTTTTTTTT
B20: CACACA_site748 (dsDNA)
DNA 1: ATTTTTTTTTTTTCCTTACACACATATTTCATTTTA
DNA 2: TAAAATGAAATATGTGTGTAAGGAAAAAAAAAAAAT
B21: CACACA_site6794 (dsDNA)
DNA 1: AAAAAAAAAAAAAACACACACACACGCATACAAAAT
DNA 2: ATTTTGTATGCGTGTGTGTGTGTTTTTTTTTTTTTT
B22: CACACA_site8724 (dsDNA)
DNA 1: AACACATACATATATACACACACAAAATAATAAAAT
DNA 2: ATTTTATTATTTTGTGTGTGTATATATGTATGTGTT
B23: CACACA_site8200 (dsDNA)
DNA 1: AAACTTAATATCGGTACACACACAAGATAAGAATTA
DNA 2: TAATTCTTATCTTGTGTGTGTACCGATATTAAGTTT
B24: CACACA_site757 (dsDNA)
DNA 1: AAACTTGACAGACACACACACACATATATAAAAAAA
DNA 2: TTTTTTTATATATGTGTGTGTGTGTCTGTCAAGTTT
B25: CACACA_site2053 (dsDNA)
DNA 1: AAATTTATTATGAACATACACACAAAAAAAAAAAGT
DNA 2: ACTTTTTTTTTTTGTGTGTATGTTCATAATAAATTT
B26: CACACA_site8938 (dsDNA)
DNA 1: TAATTAAATACATTAACACACACACTAATATATACA
DNA 2: TGTATATATTAGTGTGTGTGTTAATGTATTTAATTA
B27: CACACA_site7188 (dsDNA)
DNA 1: GTGCATAAATCATACACACACACATATATAAATATA
DNA 2: TATATTTATATATGTGTGTGTGTATGATTTATGCAC
B28: CACACA_site2906 (dsDNA)
DNA 1: AATATAAATAAACACACACACATATATATATATATT
DNA 2: AATATATATATATATGTGTGTGTGTTTATTTATATT
B29: GTGCAC_site10571 (dsDNA)
DNA 1: GATTATTTCTAAAAAGTGCATATTTAAAAATCTCCT
DNA 2: AGGAGATTTTTAAATATGCACTTTTTAGAAATAATC
B30: GTGCAC_site10077 (dsDNA)
DNA 1: TTCATTCAAATTAACGTGCACATTATTAGTAAAAAC
DNA 2: GTTTTTACTAATAATGTGCACGTTAATTTGAATGAA
B31: GTGCAC_site10360 (dsDNA)
DNA 1: TACCCTTGCATGTAGGTGCAATTTTTTTTTTTTTTT
DNA 2: AAAAAAAAAAAAAAATTGCACCTACATGCAAGGGTA
B32: GTGCAC_site9473 (dsDNA)
DNA 1: TGTATTAACAAAAAGGTGCGGATATATATAAAAAAT
DNA 2: ATTTTTTATATATATCCGCACCTTTTTGTTAATACA
B33: GTGCAC_site9783 (dsDNA)
DNA 1: TAAATTTATATATAGGTGCGCAATTTGATAATAGTT
DNA 2: AACTATTATCAAATTGCGCACCTATATATAAATTTA
B34: GTGCAC_site10243 (dsDNA)
DNA 1: ACATATTAAATATGAGTGCAATATATATATATATAA
DNA 2: TTATATATATATATATTGCACTCATATTTAATATGT
B35: GTGCAC_site9739 (dsDNA)
DNA 1: TTATAAATATTCACTGTGCACTGATGGAATATAAAT
DNA 2: ATTTATATTCCATCAGTGCACAGTGAATATTTATAA
B36: GTGCAC_site10625 (dsDNA)
DNA 1: TTTTTATTTTCATATGTGCACTTATATATATATATA
DNA 2: TATATATATATATAAGTGCACATATGAAAATAAAAA
B37: GTGCAC_site9748 (dsDNA)
DNA 1: GTTAATCACCATGTGGTGCATATAAGGGCATATTAT
DNA 2: ATAATATGCCCTTATATGCACCACATGGTGATTAAC
B38: GTGCAC_site9684 (dsDNA)
DNA 1: TGTACGAGTCGTAGAGTGCAGTCTGGAGAAGAGTAC
DNA 2: GTACTCTTCTCCAGACTGCACTCTACGACTCGTACA
B39: GTGCAC_site10182 (dsDNA)
DNA 1: GTATGATGCATAAGAGTGCATAAGGATATTTCTTCA
DNA 2: TGAAGAAATATCCTTATGCACTCTTATGCATCATAC
B40: GTGCAC_site9721 (dsDNA)
DNA 1: TATATATATATATATGTGCACTGGACATATTTTTAT
DNA 2: ATAAAAATATGTCCAGTGCACATATATATATATATA
B41: GTGCAC_site9963 (dsDNA)
DNA 1: AATAATAAAAATATTGTGCACTTGTATATTTATTAT
DNA 2: ATAATAAATATACAAGTGCACAATATTTTTATTATT
B42: GTGCAC_site9916 (dsDNA)
DNA 1: TATTTCTTTTGGTTGGTGCATAAAATAATACAATAT
DNA 2: ATATTGTATTATTTTATGCACCAACCAAAAGAAATA
B43: GTGCAC_site10768 (dsDNA)
DNA 1: TATATATATCTTTTGGTGCATATTTCGAATATATGT
DNA 2: ACATATATTCGAAATATGCACCAAAAGATATATATA

Target: T1, PF3D7_0420300 D1 (Plasmodium falciparum, UniProt Q8I1N6 1956-2015)
T1 sequence: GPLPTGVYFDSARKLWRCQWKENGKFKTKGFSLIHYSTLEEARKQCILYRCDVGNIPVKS
Assay: gcPBM; about 25 ug protein; PBS, 1% milk, 0.2 mg/ml BSA, salmon testes DNA, 0.03% Triton X-100
Conditions: tags: N-terminal GST (pGEX-4T-1), kept; label: surface-attached array probe

| Binder | binding signal |
| --- | --- |
| B1 | 10 ln median PBM intensity, better of two orientations |
| B2 | 10 ln median PBM intensity, better of two orientations |
| B3 | 9.96 ln median PBM intensity, better of two orientations |
| B4 | 10.8 ln median PBM intensity, better of two orientations |
| B5 | 10 ln median PBM intensity, better of two orientations |
| B6 | 10.1 ln median PBM intensity, better of two orientations |
| B7 | 9.98 ln median PBM intensity, better of two orientations |
| B8 | 9.97 ln median PBM intensity, better of two orientations |
| B9 | 10.1 ln median PBM intensity, better of two orientations |
| B10 | 10.1 ln median PBM intensity, better of two orientations |
| B11 | 10.1 ln median PBM intensity, better of two orientations |
| B12 | 10.2 ln median PBM intensity, better of two orientations |
| B13 | 10.1 ln median PBM intensity, better of two orientations |
| B14 | 10 ln median PBM intensity, better of two orientations |
| B15 | 10.2 ln median PBM intensity, better of two orientations |
| B16 | 10 ln median PBM intensity, better of two orientations |
| B17 | 10.1 ln median PBM intensity, better of two orientations |
| B18 | 10.1 ln median PBM intensity, better of two orientations |
| B19 | 10.2 ln median PBM intensity, better of two orientations |
| B20 | 9.99 ln median PBM intensity, better of two orientations |
| B21 | 10.1 ln median PBM intensity, better of two orientations |
| B22 | 10.1 ln median PBM intensity, better of two orientations |
| B23 | 9.96 ln median PBM intensity, better of two orientations |
| B24 | 10.1 ln median PBM intensity, better of two orientations |
| B25 | 9.98 ln median PBM intensity, better of two orientations |
| B26 | 10 ln median PBM intensity, better of two orientations |
| B27 | 9.95 ln median PBM intensity, better of two orientations |
| B28 | 10.1 ln median PBM intensity, better of two orientations |

Target: T2, SIP2 D1 (Plasmodium falciparum, UniProt C6KSN9 177-235)
T2 sequence: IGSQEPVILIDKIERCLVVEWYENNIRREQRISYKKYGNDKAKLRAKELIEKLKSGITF
Assay: as above
Conditions: tags: N-terminal GST (pGEX-4T-1), kept; label: surface-attached array probe

| Binder | binding signal |
| --- | --- |
| B29 | 9.76 ln median PBM intensity, better of two orientations |
| B30 | 10 ln median PBM intensity, better of two orientations |
| B31 | 10 ln median PBM intensity, better of two orientations |
| B32 | 9.85 ln median PBM intensity, better of two orientations |
| B33 | 10 ln median PBM intensity, better of two orientations |
| B34 | 8.44 ln median PBM intensity, better of two orientations |
| B35 | 9.91 ln median PBM intensity, better of two orientations |
| B36 | 10.1 ln median PBM intensity, better of two orientations |
| B37 | 10.1 ln median PBM intensity, better of two orientations |
| B38 | 8.45 ln median PBM intensity, better of two orientations |
| B39 | 9.94 ln median PBM intensity, better of two orientations |
| B40 | 9.71 ln median PBM intensity, better of two orientations |
| B41 | 9.87 ln median PBM intensity, better of two orientations |
| B42 | 10.2 ln median PBM intensity, better of two orientations |
| B43 | 10.2 ln median PBM intensity, better of two orientations |
